From patent US20130251707A1 come the findings set out here.

The assay concerns the target human TNFR1-Fc (human) (UniProt P19438). As to the kind of experiment: quartz crystal microbalance, TNFR1-Fc immobilized.

Sequence of human TNFR1-Fc (human) (P19438 29-211 limits assumed): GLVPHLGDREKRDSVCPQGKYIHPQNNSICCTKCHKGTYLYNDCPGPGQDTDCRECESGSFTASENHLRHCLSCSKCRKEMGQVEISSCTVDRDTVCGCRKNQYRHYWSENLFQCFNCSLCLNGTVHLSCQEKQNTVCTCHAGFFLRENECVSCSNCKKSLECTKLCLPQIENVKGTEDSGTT

B1: scFv IZI-06.1 (scFv, V domains shown, part only)
VH: QVQLVQSGAEVKKPGSSVKVSCKASGYTFTDFYINWVRQAPGQGLEWIGEIYPYSGHAYYNEKFKARVTITADKSTSTAYMELSSLRSEDTAVYYCARWDFLDYWGQGTTVTVSS
VL: DIVMTQSPLSLPVTPGEPASISCRSSQSLLHSNGNTYLHWYLQKPGQSPQLLIYTVSNRFSGVPDRFSGSGSGTDFTLKISRVEAEDVGVYYCSQSTHVPYTFGGGTKVEIKR
modifications: linker and tags not stated
In general, Kd refers to the free concentration of one partner at which half of the binding sites on the other are occupied at equilibrium, for simple one-to-one binding. In general, koff refers to the first-order rate constant of dissociation. Lower therefore signals a long-lived complex. The term kon denotes a measure of how fast the partners come together. Low readings indicate slow association, high ones fast association. The molecule B1 came in with a Kd of 2.2 nM; a fold reduced affinity (against ATROSAB and H398) of 10 fold; an off-rate constant (koff) of 0.00076 s⁻¹; an association rate constant (kon) of 350000 M⁻¹ s⁻¹.
